Measured values from patent publication US20060024289.
Where “and” joins values, the source holds several entries; their conditions need not be identical. Identical values can stand only once.

B1: wild-type rat granzyme B (protein)
chain: IIGGHEAKPHSRPYMAYLQIMDEYSGSKKCGGFLIREDFVLTAAHCSGSKINVTLGAHNIKEQEKMQQIIPVVKIIPHPAYNSKTISNDIMLLKLKSKAKRSSAVKPLNLPRRNVKVKPGDVCYVAGWGKLGPMGKYSDTLQEVELTVQEDQKCESYLKNYFDKANEICAGDPKIKRASFRGDSGGPLVCKKVAAGIVSYGQNDGSTPRAFTKVSTFLSWIKKTMKK
B2: rat granzyme B I99A/N218A (protein)
chain: IIGGHEAKPHSRPYMAYLQIMDEYSGSKKCGGFLIREDFVLTAAHCSGSKINVTLGAHNIKEQEKMQQIIPVVKIIPHPAYNSKTASNDIMLLKLKSKAKRSSAVKPLNLPRRNVKVKPGDVCYVAGWGKLGPMGKYSDTLQEVELTVQEDQKCESYLKNYFDKANEICAGDPKIKRASFRGDSGGPLVCKKVAAGIVSYGQADGSTPRAFTKVSTFLSWIKKTMKKS

Assays:
[1] = biological target: T1, Ac-IEFD-AMC; assay: Michaelis-Menten kinetics of fluorogenic tetrapeptide hydrolysis
T1 chain: XIEFDX

[2] = biological target: T2, Ac-IKPD-AMC; assay: as above
T2 chain: XIKPDX

[3] = biological target: T3, Ac-LEPD-AMC; assay: as above
T3 chain: XLEPDX

[4] = biological target: T4, Ac-IEPD-AMC; assay: as above
T4 chain: XIEPDX

[5] = biological target: T5, Ac-IETD-AMC; assay: as above
T5 chain: XIETDX

[6] = biological target: T6, Ac-LEFD-AMC; assay: as above
T6 chain: XLEFDX

[7] = biological target: T1, Ac-IEFD-AMC
[8] = biological target: T2, Ac-IKPD-AMC
[9] = biological target: T7, extracellular domain of VEGF-R2 (Flk1) fused to the Fc domain of mouse IgG
T7 chain: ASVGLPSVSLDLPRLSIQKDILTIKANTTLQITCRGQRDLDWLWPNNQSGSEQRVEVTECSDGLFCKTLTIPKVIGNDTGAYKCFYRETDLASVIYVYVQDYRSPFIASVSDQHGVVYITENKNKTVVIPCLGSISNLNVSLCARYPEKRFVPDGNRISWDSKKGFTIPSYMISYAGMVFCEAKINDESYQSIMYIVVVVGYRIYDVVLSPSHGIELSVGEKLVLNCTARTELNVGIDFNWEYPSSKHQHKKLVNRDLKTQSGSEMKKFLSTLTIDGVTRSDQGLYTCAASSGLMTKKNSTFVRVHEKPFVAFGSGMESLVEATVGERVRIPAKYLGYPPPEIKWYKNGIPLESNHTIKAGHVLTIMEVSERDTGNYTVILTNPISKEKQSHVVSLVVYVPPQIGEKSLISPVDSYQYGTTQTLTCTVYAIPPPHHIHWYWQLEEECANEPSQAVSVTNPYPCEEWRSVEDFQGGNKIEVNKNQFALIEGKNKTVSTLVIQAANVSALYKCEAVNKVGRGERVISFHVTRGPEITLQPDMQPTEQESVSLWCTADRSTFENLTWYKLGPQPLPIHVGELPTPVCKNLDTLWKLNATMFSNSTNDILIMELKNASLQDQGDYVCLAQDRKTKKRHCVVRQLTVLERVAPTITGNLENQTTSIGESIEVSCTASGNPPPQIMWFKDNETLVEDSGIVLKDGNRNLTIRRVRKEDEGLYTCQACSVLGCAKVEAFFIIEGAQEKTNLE

[10] = biological target: T3, Ac-LEPD-AMC
[11] = biological target: T4, Ac-IEPD-AMC
[12] = biological target: T5, Ac-IETD-AMC
[13] = biological target: T6, Ac-LEFD-AMC
[14] = biological target: T8, Ac-IAPD-ACC
T8 chain: XIAPDX

Protein | Km [1] | Km [3] | Km [4] | Km [6] | kcat [7] | kcat/Km [7] | ΔΔGT^‡ [7] | cleavage of purified VEGFR2-Fc (SDS-PAGE) [9] | in vitro cleavage of soluble Flk1-Fc (gel, FIG. 10) [9] | kcat/Km [10] | ΔΔGT^‡ [10] | kcat [11] | kcat/Km [11] | ΔΔGT^‡ [11] | kcat [13] | kcat/Km [13] | ΔΔGT^‡ [13] | further results
B1 | 150 µM and 153 µM | 1100 µM | 370 µM | 600 µM | 0.15 s⁻¹ and 0.154 s⁻¹ | 1000 M⁻¹ s⁻¹ | 0.71 kcal/mol | The purified VEGFR2-Fc is efficiently cleaved by wild-type and mutant granzyme B ... None of the protease variants (wild-type or mutant) cleave the Fc domain | Wild-type granzyme B and the listed muteins cleave the VEGFR-Fc receptor | 88 M⁻¹ s⁻¹ | 2.18 kcal/mol | 1.2 s⁻¹ | 3300 M⁻¹ s⁻¹ | 0 kcal/mol | 0.0087 s⁻¹ | 14 M⁻¹ s⁻¹ | 3.26 kcal/mol | Km [2]: 1500 µM and 1600 µM; Km [5]: 250 µM; Kcat [7]: 0.15 s⁻¹; Kcat/Km [7]: 1000 M⁻¹ s⁻¹; Kcat [8]: 0.15 s⁻¹; Kcat/Km [8]: 99 M⁻¹ s⁻¹; kcat [8]: 0.15 s⁻¹; kcat/Km [8]: 99 M⁻¹ s⁻¹; Kcat [10]: 0.096 s⁻¹; Kcat/Km [10]: 87 M⁻¹ s⁻¹; kcat [10]: 0.096 s⁻¹; Kcat [11]: 1.2 s⁻¹; Kcat/Km [11]: 3300 M⁻¹ s⁻¹; Kcat [12]: 0.39 s⁻¹; Kcat/Km [12]: 1600 M⁻¹ s⁻¹; Kcat/Km [14]: 110 M⁻¹ s⁻¹; kcat/Km [14]: 110 M⁻¹ s⁻¹
B2 | 890 µM | > 2000 µM | 2700 µM | 1300 µM | 0.26 s⁻¹ | 290 M⁻¹ s⁻¹ | -1.33 kcal/mol | The purified VEGFR2-Fc is efficiently cleaved by wild-type and mutant granzyme B ... None of the protease variants (wild-type or mutant) cleave the Fc domain | Wild-type granzyme B and the listed muteins cleave the VEGFR-Fc receptor | 1.3 M⁻¹ s⁻¹ | 1.92 kcal/mol | 0.087 s⁻¹ | 32 M⁻¹ s⁻¹ | 0 kcal/mol | 0.047 s⁻¹ | 37 M⁻¹ s⁻¹ | -0.09 kcal/mol | 
